According to US8586056:
Like-named read-outs stand apart in the source and are kept apart here.

Tests used:
[1] = molecular target: 16936V1-3-55 gp160 full length Env (HIV-1 (16936 with 16055 V1-3 loops))
[2] = molecular target: Env of the 16055 virus (HIV-1 clade C, isolate 16055)
[3] = molecular target: HIV-1 Env 16936 (HIV-1, isolate 16936)
[4] = molecular target: HIV-1 clade C 16055 gp120-Histag, EF117268_gp120 (HIV-1 clade C, isolate 16055); test: Octet
[5] = molecular target: HIV-1 clade C 16055 gp120-Histag, EF117268_gp120 (HIV-1 clade C, isolate 16055); test: Octet (biolayer interferometry)
0013095 gp140 = test: ELISA on recombinant gp140
[6] = molecular target: HIV-1 clade C 16055 gp140-Histag, EF117268_gp140 (HIV-1 clade C, isolate 16055); test: ELISA on recombinant gp140
[7] = molecular target: 16055 gp140 trimer with c-terminus trimerization domain GCN4 (HIV-1 clade C, isolate 16055); test: ELISA on recombinant gp140
[8] = molecular target: HIV-1 clade C 16055 gp140-Histag, EF117268_gp140 (HIV-1 clade C, isolate 16055); test: ELISA on recombinant gp140; remark: listed apart in the source
SF162 (HIV-1) [9] = molecular target: SF162 (HIV-1)
Du172 (HIV-1) [10] = molecular target: Du172 (HIV-1)
QH0692 (HIV-1) [11] = molecular target: QH0692 (HIV-1)
Zm135 (HIV-1) [12] = molecular target: Zm135 (HIV-1)
JRCSF [13] = molecular target: JRCSF
DU422 (HIV-1) [14] = molecular target: DU422 (HIV-1)
[15] = molecular target: Zm109F (AY424138) (HIV-1)
CAP45 (HIV-1) [16] = molecular target: CAP45 (HIV-1)
[17] = molecular target: Env of the 16055 virus (HIV-1 clade C, isolate 16055); remark: listed apart in the source
[18] = molecular target: HIV-1 Env 16936 (HIV-1, isolate 16936); remark: listed apart in the source
YU2 [19] = molecular target: YU2
JRFL (HIV-1) [20] = molecular target: JRFL (HIV-1)
Zm197 (HIV-1) [21] = molecular target: Zm197 (HIV-1)
[22] = molecular target: 0013095 (EF117267) (HIV-1)
ZM214 (HIV-1) [23] = molecular target: ZM214 (HIV-1)
[24] = molecular target: 16936-16055V123loop (HIV-1 (16936 backbone with 16055 V1, V2 and V3 loops)); test: ELISA
Du172 (HIV-1) [25] = molecular target: Du172 (HIV-1); remark: listed apart in the source
Zm135 (HIV-1) [26] = molecular target: Zm135 (HIV-1); remark: listed apart in the source
JRCSF [27] = molecular target: JRCSF; remark: listed apart in the source
DU422 (HIV-1) [28] = molecular target: DU422 (HIV-1); remark: listed apart in the source
CAP45 (HIV-1) [29] = molecular target: CAP45 (HIV-1); remark: listed apart in the source
[30] = molecular target: Env of the 16055 virus (HIV-1 clade C, isolate 16055); remark: listed apart in the source
YU2 [31] = molecular target: YU2; remark: listed apart in the source
Zm197 (HIV-1) [32] = molecular target: Zm197 (HIV-1); remark: listed apart in the source
[33] = molecular target: BG505_gp120 (HIV-1 clade A, BG505); test: ELISA on BG505 gp120
JRCSF [34] = test: shed gp120 capture ELISA
[35] = molecular target: Env of the 16055 virus (HIV-1 clade C, isolate 16055); test: shed gp120 capture ELISA
[36] = molecular target: Env of the 16055 virus (HIV-1 clade C, isolate 16055); test: ELISA; same curves as panel 16055-2 of FIG. 3A
SF162 (HIV-1) [37] = molecular target: SF162 (HIV-1); remark: listed apart in the source
QH0692 (HIV-1) [38] = molecular target: QH0692 (HIV-1); remark: listed apart in the source
JRFL (HIV-1) [39] = molecular target: JRFL (HIV-1); remark: listed apart in the source
ZM214 (HIV-1) [40] = molecular target: ZM214 (HIV-1); remark: listed apart in the source

4E10 (antibody)
neutralization IC50 [1]: 2.68 µg/mL
neutralization IC50 [2]: 7.02 µg/mL
neutralization IC50 [3]: 3.85 µg/mL

A32 (antibody)
Kd [4]: 5.2 nM
koff [4]: 8.23e-05 s⁻¹
kon [4]: 15600 M⁻¹ s⁻¹

F105 (antibody)
koff [4]: 0.00169 s⁻¹
kon [4]: 8430 M⁻¹ s⁻¹
Kd [5]: 200 nM

PG9 (antibody)
EC50 (read off the curve) (0013095 gp140): 0.9 µg/mL
EC50 (read off the curve) [6]: 0.1 µg/mL
EC50 (read off the curve) [7]: 0.1 µg/mL
EC50 (read off the curve) [8]: 0.2 µg/mL
neutralization IC50 [1]: 0.03 µg/mL
neutralization IC50 [3]: > 25 µg/mL
neutralization IC50 (SF162 (HIV-1) [9]): > 25 µg/mL
neutralization IC50 (Du172 (HIV-1) [10]): 0.49 µg/mL
neutralization IC50 (QH0692 (HIV-1) [11]): > 25 µg/mL
neutralization IC50 (CAAN (AY835452) (HIV-1)): 11.9 µg/mL
neutralization IC50 (Zm135 (HIV-1) [12]): 17.6 µg/mL
neutralization IC50 (JRCSF [13]): < 0.01 µg/mL
neutralization IC50 (DU422 (HIV-1) [14]): 1.64 µg/mL
neutralization IC50 (PVO (HIV-1)): 9.76 µg/mL
neutralization IC50 [15]: 0.46 µg/mL
neutralization IC50 (CAP45 (HIV-1) [16]): < 0.01 µg/mL
neutralization IC50 (6535 (AY835438) (HIV-1)): 0.6 µg/mL
neutralization IC50 [17]: < 0.01 µg/mL
neutralization IC50 (virus printed '6936') [18]: > 25 µg/mL
neutralization IC50 (AC10 (HIV-1)): 0.05 µg/mL
neutralization IC50 (YU2 [19]): < 0.01 µg/mL
neutralization IC50 (JRFL (HIV-1) [20]): > 25 µg/mL
neutralization IC50 (Zm197 (HIV-1) [21]): 0.61 µg/mL
neutralization IC50 (25710 (EF117271) (HIV-1)): < 0.01 µg/mL
neutralization IC50 [22]: < 0.01 µg/mL
neutralization IC50 (25925 (EF117273) (HIV-1)): 0.15 µg/mL
neutralization IC50 (Bal (HIV-1)): < 0.01 µg/mL
neutralization IC50 (ZM214 (HIV-1) [23]): > 25 µg/mL
EC50 (read off the curve) [24]: 0.2 µg/mL
neutralization IC50 (Du172 (HIV-1) [25]): 0.24 µg/mL
neutralization IC50 (Zm135 (HIV-1) [26]): > 25 µg/mL
neutralization IC50 (UG037 (HIV-1)): 0.02 µg/mL
neutralization IC50 (REJ0451 (HIV-1)): 0.001 µg/mL
neutralization IC50 (JRCSF [27]): 0.002 µg/mL
neutralization IC50 (Q842 (HIV-1)): 0.02 µg/mL
neutralization IC50 (MulV): > 25 µg/mL
neutralization IC50 (DU422 (HIV-1) [28]): 0.178 µg/mL
neutralization IC50 (CAP45 (HIV-1) [29]): 0.003 µg/mL
neutralization IC50 (WIT04160 (HIV-1)): 0.005 µg/mL
neutralization IC50 [30]: 0.01 µg/mL
neutralization IC50 (RW020 (HIV-1)): 0.05 µg/mL
neutralization IC50 (YU2 [31]): 1.73 µg/mL
neutralization IC50 (Zm197 (HIV-1) [32]): 0.287 µg/mL
EC50 (read off the curve) [33]: 0.04 µg/mL
EC50 (read off the curve) (JRCSF [34]): 0.3 µg/mL
EC50 (read off the curve) [35]: 0.3 µg/mL
EC50 (read off the curve) [36]: 0.3 µg/mL

PG16 (antibody)
EC50 (read off the curve) [6]: 0.08 µg/mL
EC50 (read off the curve) [7]: 0.08 µg/mL
EC50 (read off the curve) [8]: 0.1 µg/mL
neutralization IC50 [1]: 0.06 µg/mL
neutralization IC50 [2]: < 0.01 µg/mL
neutralization IC50 [3]: > 25 µg/mL
neutralization IC50 (SF162 (HIV-1) [9]): > 25 µg/mL
neutralization IC50 (Du172 (HIV-1) [10]): 0.06 µg/mL
neutralization IC50 (QH0692 (HIV-1) [11]): > 25 µg/mL
neutralization IC50 (CAAN (AY835452) (HIV-1)): 12.9 µg/mL
neutralization IC50 (Zm135 (HIV-1) [12]): > 25 µg/mL
neutralization IC50 (JRCSF [13]): < 0.01 µg/mL
neutralization IC50 (DU422 (HIV-1) [14]): 2.34 µg/mL
neutralization IC50 (PVO (HIV-1)): 21.9 µg/mL
neutralization IC50 [15]: > 25 µg/mL
neutralization IC50 (CAP45 (HIV-1) [16]): < 0.01 µg/mL
neutralization IC50 (6535 (AY835438) (HIV-1)): > 25 µg/mL
neutralization IC50 (virus printed '6936') [18]: > 25 µg/mL
neutralization IC50 (AC10 (HIV-1)): < 0.01 µg/mL
neutralization IC50 (YU2 [19]): < 0.01 µg/mL
neutralization IC50 (JRFL (HIV-1) [20]): > 25 µg/mL
neutralization IC50 (Zm197 (HIV-1) [21]): 1.68 µg/mL
neutralization IC50 (25710 (EF117271) (HIV-1)): < 0.01 µg/mL
neutralization IC50 [22]: < 0.01 µg/mL
neutralization IC50 (25925 (EF117273) (HIV-1)): 0.11 µg/mL
neutralization IC50 (Bal (HIV-1)): < 0.01 µg/mL
neutralization IC50 (ZM214 (HIV-1) [23]): > 25 µg/mL
neutralization IC50 (Du172 (HIV-1) [25]): 0.023 µg/mL
neutralization IC50 (UG037 (HIV-1)): 0.01 µg/mL
neutralization IC50 (REJ0451 (HIV-1)): 0.004 µg/mL
neutralization IC50 (JRCSF [27]): 0.001 µg/mL
neutralization IC50 (Q842 (HIV-1)): 0.009 µg/mL
neutralization IC50 (MulV): > 25 µg/mL
neutralization IC50 (DU422 (HIV-1) [28]): 0.042 µg/mL
neutralization IC50 (CAP45 (HIV-1) [29]): 0.002 µg/mL
neutralization IC50 (WIT04160 (HIV-1)): 0.002 µg/mL
neutralization IC50 [30]: 0.01 µg/mL
neutralization IC50 (RW020 (HIV-1)): 0.037 µg/mL
neutralization IC50 (YU2 [31]): 0.114 µg/mL
neutralization IC50 (Zm197 (HIV-1) [32]): 0.765 µg/mL
EC50 (read off the curve) [33]: 0.2 µg/mL

VRC01 (antibody)
koff [4]: 0.000294 s⁻¹
kon [4]: 4780 M⁻¹ s⁻¹
Kd [5]: 61 nM

b6 (antibody)
Kd [4]: 7.7 nM
koff [4]: 8.66e-05 s⁻¹
kon [4]: 11000 M⁻¹ s⁻¹

b12 (antibody)
koff [4]: 0.00107 s⁻¹
kon [4]: 8790 M⁻¹ s⁻¹
neutralization IC50 [1]: 20.5 µg/mL
neutralization IC50 [2]: > 25 µg/mL
neutralization IC50 [3]: > 25 µg/mL
neutralization IC50 (SF162 (HIV-1) [37]): 0.07 µg/mL
neutralization IC50 (Du172 (HIV-1) [25]): 0.3 µg/mL
neutralization IC50 (QH0692 (HIV-1) [38]): 0.97 µg/mL
neutralization IC50 (Zm135 (HIV-1) [26]): > 25 µg/mL
neutralization IC50 (UG037 (HIV-1)): > 25 µg/mL
neutralization IC50 (REJ0451 (HIV-1)): 5.92 µg/mL
neutralization IC50 (JRCSF [27]): 0.096 µg/mL
neutralization IC50 (Q842 (HIV-1)): > 25 µg/mL
neutralization IC50 (MulV): > 25 µg/mL
neutralization IC50 (DU422 (HIV-1) [28]): 0.464 µg/mL
neutralization IC50 (CAP45 (HIV-1) [29]): 0.37 µg/mL
neutralization IC50 (WIT04160 (HIV-1)): 8.58 µg/mL
neutralization IC50 (RW020 (HIV-1)): 10 µg/mL
neutralization IC50 (YU2 [31]): 2.18 µg/mL
neutralization IC50 (JRFL (HIV-1) [39]): 0.022 µg/mL
neutralization IC50 (Zm197 (HIV-1) [32]): > 25 µg/mL
neutralization IC50 (ZM214 (HIV-1) [40]): 13.6 µg/mL
EC50 (read off the curve) [33]: 0.03 µg/mL
Kd [5]: 120 nM
